Substitutions are numbered along the chain they refer to. In names and notes the source's numbering stands.
B1: PYR1^K59R,A160I (receptor, not shown: small tags and cut ends)
chain: MPSELTPEERSELKNSIAEFHTYQLDPGSCSSLHAQRIHAPPELVWSIVRRFDKPQTYRHFIKSCSVEQNFEMRVGCTRDVIVISGLPANTSTERLDILDDERRVTGFSIIGGEHRLTNYKSVTTVHRFEKENRIWTVVLESYVVDMPEGNSEDDTRMFIDTVVKLNLQKLATVAEAMARNSGDGSGSQVT
notes: pBD-PYR1 fusion in yeast
B2: PYR1^K59R,A160T (receptor, not shown: small tags and cut ends)
chain: B1 chain with I160T
notes: pBD-PYR1 fusion in yeast
B3: PYR1^K59R,A160S (receptor, not shown: small tags and cut ends)
chain: B1 chain with I160S
notes: pBD-PYR1 fusion in yeast
B4: PYR1^K59R,A160N (receptor, not shown: small tags and cut ends)
chain: B1 chain with I160N
notes: pBD-PYR1 fusion in yeast
B5: PYR1^K59R,H115N (receptor)
chain: B1 chain with H115N, I160A
notes: pBD-PYR1 fusion in yeast
B6: PYR1^K59R,N167D (receptor, not shown: small tags and cut ends)
chain: B1 chain with I160A, N167D
notes: pBD-PYR1 fusion in yeast
B7: PYR1^K59R,N167S (receptor, not shown: small tags and cut ends)
chain: B1 chain with I160A, N167S
notes: pBD-PYR1 fusion in yeast
B8: PYR1^K59R,N167T (receptor, not shown: small tags and cut ends)
chain: B1 chain with I160A, N167T
notes: pBD-PYR1 fusion in yeast
B9: PYR1^K59R,A160V (receptor, not shown: small tags and cut ends)
chain: B1 chain with I160V
notes: pBD-PYR1 fusion in yeast
B10: PYR1^K59R,M158S (receptor, not shown: small tags and cut ends)
chain: B1 chain with M158S, I160A
notes: pBD-PYR1 fusion in yeast
B11: PYR1^K59R,E141L (receptor, not shown: small tags and cut ends)
chain: B1 chain with E141L, I160A
notes: pBD-PYR1 fusion in yeast
B12: PYR1^K59R,E141Q (receptor, not shown: small tags and cut ends)
chain: B1 chain with E141Q, I160A
notes: pBD-PYR1 fusion in yeast
B13: PYR1^K59R,N167A (receptor, not shown: small tags and cut ends)
chain: B1 chain with I160A, N167A
notes: pBD-PYR1 fusion in yeast
B14: PYR1^K59R,M158A (receptor, not shown: small tags and cut ends)
chain: B1 chain with M158A, I160A
notes: pBD-PYR1 fusion in yeast
B15: PYR1^K59R,M158G (receptor, not shown: small tags and cut ends)
chain: B1 chain with M158G, I160A
notes: pBD-PYR1 fusion in yeast
B16: PYR1^K59R,I110M (receptor, not shown: small tags and cut ends)
chain: B1 chain with I110M, I160A
notes: pBD-PYR1 fusion in yeast
B17: PYR1^K59R,E141H (receptor, not shown: small tags and cut ends)
chain: B1 chain with E141H, I160A
notes: pBD-PYR1 fusion in yeast
B18: PYR1^K59R,A160Y (receptor, not shown: small tags and cut ends)
chain: B1 chain with I160Y
notes: pBD-PYR1 fusion in yeast
B19: PYR1^K59R,M158L (receptor, not shown: small tags and cut ends)
chain: B1 chain with M158L, I160A
notes: pBD-PYR1 fusion in yeast
B20: PYR1^K59R,N167G (receptor, not shown: small tags and cut ends)
chain: B1 chain with I160A, N167G
notes: pBD-PYR1 fusion in yeast
B21: PYR1^K59R,N167Q (receptor, not shown: small tags and cut ends)
chain: B1 chain with I160A, N167Q
notes: pBD-PYR1 fusion in yeast
B22: PYR1^K59R,E141F (receptor)
chain: B1 chain with E141F, I160A
notes: pBD-PYR1 fusion in yeast

target: T1, GAL4 activation domain fusion (ACT) to HAB1 (UniProt Q9CAJ0 23-511, limits assumed); test: yeast two-hybrid, X-gal; lowest dichlobenil concentration giving signal
T1 construct: pACT-HAB1 fusion in yeast reporter strains; also called pACT-HAB1
T1 sequence (looked up): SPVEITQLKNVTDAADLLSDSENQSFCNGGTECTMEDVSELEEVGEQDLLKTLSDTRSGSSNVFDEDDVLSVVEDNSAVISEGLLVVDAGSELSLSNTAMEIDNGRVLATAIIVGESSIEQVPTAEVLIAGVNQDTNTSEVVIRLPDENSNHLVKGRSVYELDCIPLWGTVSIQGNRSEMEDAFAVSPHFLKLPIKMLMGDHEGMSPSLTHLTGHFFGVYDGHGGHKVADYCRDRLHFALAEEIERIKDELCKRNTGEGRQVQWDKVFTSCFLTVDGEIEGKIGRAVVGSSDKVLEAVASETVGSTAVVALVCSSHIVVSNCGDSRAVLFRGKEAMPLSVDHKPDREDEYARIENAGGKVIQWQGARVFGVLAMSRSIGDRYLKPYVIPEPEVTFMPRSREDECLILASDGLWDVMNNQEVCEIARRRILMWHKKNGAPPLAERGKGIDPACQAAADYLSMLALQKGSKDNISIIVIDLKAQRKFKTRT

Threshold, 100 µM:
B1, B2, B3, B4, B5, B6, B7, B8, B9, B10, B11, B12, B13, B14, B15, B16, B17, B18, B19, B20, B21, B22
